In paper PMC7333480 (Journal of Molecular Cell Biology, 2019):

Target: His-ezrin WT (UniProt P15311 1-586)
Experiment: pull-down

His-ezrin WT, sequence (P15311 whole entry): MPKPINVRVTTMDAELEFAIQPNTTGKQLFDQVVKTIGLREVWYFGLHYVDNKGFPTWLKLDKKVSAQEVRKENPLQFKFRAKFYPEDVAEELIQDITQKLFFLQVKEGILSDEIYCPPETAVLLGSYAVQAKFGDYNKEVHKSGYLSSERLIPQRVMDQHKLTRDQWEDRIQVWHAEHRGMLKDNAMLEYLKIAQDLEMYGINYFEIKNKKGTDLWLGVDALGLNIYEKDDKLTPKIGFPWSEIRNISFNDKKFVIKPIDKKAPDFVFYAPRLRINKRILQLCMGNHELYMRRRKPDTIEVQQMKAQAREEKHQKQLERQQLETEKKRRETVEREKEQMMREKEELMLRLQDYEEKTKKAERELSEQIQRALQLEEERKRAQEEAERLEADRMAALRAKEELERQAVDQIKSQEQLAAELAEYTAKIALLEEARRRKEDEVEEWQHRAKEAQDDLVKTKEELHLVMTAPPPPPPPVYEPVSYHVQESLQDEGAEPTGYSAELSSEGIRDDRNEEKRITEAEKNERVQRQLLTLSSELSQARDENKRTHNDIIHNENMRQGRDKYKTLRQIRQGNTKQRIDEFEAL

Binder | binding result
GST-EBP50-CT (domain or fragment) KENSREALAEAALESPRPALVRSASSDTSEELNSQDSPPKQDSTAPSSTSSSDPILDFNISLAMAKERAHQKRSSKRAPQMDWSKKNELFSNL | binds
FGQHLRQQRMGTYGVRAAWRRLPQAFRP (domain or fragment) [GST-ICAM2-CT] | binds
